We go through 1 protein from FireProtDB (doi:10.1016/s0022-2836(03)00043-3).

The conditions of the data set: Homo sapiens; pH 8.5; 20 °C; Urea; CD; Tris 10 mM; reversible: yes; whole UniProt chain shown.

B1: Cyclin-dependent kinase inhibitor 2A wild type, P42771 (protein)
chain: MEPAAGSSMEPSADWLATAAARGRVEEVRALLEAGALPNAPNSYGRRPIQVMMMGSARVAELLLLHGAEPNCADPATLTRPVHDAAREGFLDTLVVLHRAGARLDVRDAWGRLPVDLAEELGHRDVARYLRAAAGGTRGSNHARIDAAEGPSDIPD
For the protein B1, the denaturant m value is 1.72 kcal/mol/M, the “denaturant midpoint (higher = more stable)” value was 2 M and the unfolding free energy was found to be 3.34 kcal/mol.
